Numbered stars: 1 amine (or outer) side, 2 acyl side, 3 side chain; on linkers, the order of the positions; unused ones are H or OH. Bridge positions count the residues as written; N and C are the ends. Square brackets hold non-standard residues; d marks the D form. Ends that are not written are not given here. Phe(4-guanidino) = N=C(N)Nc1ccc(C[C@H](N)C(=O)O)cc1; TBMB = c1c(C[*:1])cc(C[*:3])cc1C[*:2]; NMeR = CN[C@@H](CCCNC(=N)N)C(=O)O; hArg = N=C(N)NCCCC[C@H](N)C(=O)O; Cit = NC(=O)NCCC[C@H](N)C(=O)O; Pen = CC(C)(S)[C@H](N)C(=O)O; Dpg = CCCC(N)(CCC)C(=O)O; Aze = O=C(O)[C@@H]1CCN1; Abu = CC[C@H](N)C(=O)O; Aib = CC(C)(N)C(=O)O; βAla = NCCC(=O)O
These binders were tested against T1, human plasma Kallikrein (human, UniProt P03952 20-638, limits assumed) (assay: enzyme inhibition assay).
T1 construct: also called hPK; human PK
T1 sequence (P03952 20-638 limits assumed): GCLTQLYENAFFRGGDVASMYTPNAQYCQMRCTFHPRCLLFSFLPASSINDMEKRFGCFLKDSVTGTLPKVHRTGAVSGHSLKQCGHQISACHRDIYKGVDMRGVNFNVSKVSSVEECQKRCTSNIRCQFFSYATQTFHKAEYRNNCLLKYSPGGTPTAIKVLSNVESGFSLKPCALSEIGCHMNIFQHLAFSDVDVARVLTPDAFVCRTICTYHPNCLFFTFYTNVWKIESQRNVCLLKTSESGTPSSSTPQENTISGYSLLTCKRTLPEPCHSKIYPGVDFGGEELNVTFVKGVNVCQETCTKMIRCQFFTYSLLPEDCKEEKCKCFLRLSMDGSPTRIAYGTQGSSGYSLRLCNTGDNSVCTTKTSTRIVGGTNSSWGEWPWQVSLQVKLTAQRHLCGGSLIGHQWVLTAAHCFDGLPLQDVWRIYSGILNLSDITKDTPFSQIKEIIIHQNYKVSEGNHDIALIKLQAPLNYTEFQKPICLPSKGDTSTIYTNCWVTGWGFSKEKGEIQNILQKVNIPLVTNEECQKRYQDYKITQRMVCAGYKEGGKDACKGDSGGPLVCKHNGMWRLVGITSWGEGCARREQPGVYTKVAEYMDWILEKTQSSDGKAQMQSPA

Row | Binder | Ki
1 | ACFKNCRVNCA (linker 2-6-10 via TBMB, also called PK119) [3B2] | 9 nM
2 | ACFKQCRVNCA (linker 2-6-10 via TBMB, also called PK118) [06-94] | 0.7 nM
3 | ACFPKCRVACA (linker 2-6-10 via TBMB, also called PK122) [3A3] | 43.1 nM
4 | ACFDPCRVICA (linker 2-6-10 via TBMB, also called PK124) [3B9] | 90.8 nM
5 | ACFNKCRVNCA (linker 2-6-10 via TBMB; not fully specified (N-terminus, C-terminus), also called PK121) [06-64 (3x3 peptide of Table 3)] | 4.8 nM
6 | ACFYKCRVNCA (linker 2-6-10 via TBMB; not fully specified (N-terminus, C-terminus), also called PK120) [06-71] | 15.2 nM

Biological target: T1, human plasma Kallikrein
Test: enzyme inhibition assay
Remark: another data set of the same source

Row | Binder | Ki
7 | Ac-C[Dpg]WPARCLHQDLC-NH2 (linker 1-7-13 via TBMB; SMILES CCCC1(CCC)NC(=O)[C@@H](NC(C)=O)CSCc2cc3cc(c2)CSC[C@H](NC(=O)[C@H](CCCNC(=N)N)NC(=O)[C@H](C)NC(=O)[C@@H]2CCCN2C(=O)[C@H](Cc2c[nH]c4ccccc24)NC1=O)C(=O)N[C@@H](CC(C)C)C(=O)N[C@@H](Cc1c[nH]cn1)C(=O)N[C@@H](CCC(N)=O)C(=O)N[C@@H](CC(=O)O)C(=O)N[C@@H](CC(C)C)C(=O)N[C@H](C(N)=O)CSC3) [Ac-(06-34-18) Dpg1] | 1.09 nM
8 | Ac-CSWP[Abu]RCLHQDLC-NH2 (linker 1-7-13 via TBMB; SMILES CC[C@@H]1NC(=O)[C@@H]2CCCN2C(=O)[C@H](Cc2c[nH]c3ccccc23)NC(=O)[C@H](CO)NC(=O)[C@@H](NC(C)=O)CSCc2cc3cc(c2)CSC[C@H](NC(=O)[C@H](CCCNC(=N)N)NC1=O)C(=O)N[C@@H](CC(C)C)C(=O)N[C@@H](Cc1c[nH]cn1)C(=O)N[C@@H](CCC(N)=O)C(=O)N[C@@H](CC(=O)O)C(=O)N[C@@H](CC(C)C)C(=O)N[C@H](C(N)=O)CSC3) [Ac-(06-34-18) Aba4] | 0.07 nM
9 | Ac-CSWP[βAla]RCLHQDLC-NH2 (linker 1-7-13 via TBMB; SMILES CC(=O)N[C@H]1CSCc2cc3cc(c2)CSC[C@H](NC(=O)[C@H](CCCNC(=N)N)NC(=O)CCNC(=O)[C@@H]2CCCN2C(=O)[C@H](Cc2c[nH]c4ccccc24)NC(=O)[C@H](CO)NC1=O)C(=O)N[C@@H](CC(C)C)C(=O)N[C@@H](Cc1c[nH]cn1)C(=O)N[C@@H](CCC(N)=O)C(=O)N[C@@H](CC(=O)O)C(=O)N[C@@H](CC(C)C)C(=O)N[C@H](C(N)=O)CSC3) [Ac-(06-34-18) β-Ala4] | 17400 nM
10 | Ac-CSWP[Aib]RCLHQDLC-NH2 (linker 1-7-13 via TBMB; SMILES CC(=O)N[C@H]1CSCc2cc3cc(c2)CSC[C@H](NC(=O)[C@H](CCCNC(=N)N)NC(=O)C(C)(C)NC(=O)[C@@H]2CCCN2C(=O)[C@H](Cc2c[nH]c4ccccc24)NC(=O)[C@H](CO)NC1=O)C(=O)N[C@@H](CC(C)C)C(=O)N[C@@H](Cc1c[nH]cn1)C(=O)N[C@@H](CCC(N)=O)C(=O)N[C@@H](CC(=O)O)C(=O)N[C@@H](CC(C)C)C(=O)N[C@H](C(N)=O)CSC3) [Ac-(06-34-18) Aib4] | 289 nM
11 | Ac-CSWPAR[Pen]LHQDLC-NH2 (linker 1-7-13 via TBMB; SMILES CC(=O)N[C@H]1CSCc2cc3cc(c2)CSC(C)(C)[C@H](NC(=O)[C@H](CCCNC(=N)N)NC(=O)[C@H](C)NC(=O)[C@@H]2CCCN2C(=O)[C@H](Cc2c[nH]c4ccccc24)NC(=O)[C@H](CO)NC1=O)C(=O)N[C@@H](CC(C)C)C(=O)N[C@@H](Cc1c[nH]cn1)C(=O)N[C@@H](CCC(N)=O)C(=O)N[C@@H](CC(=O)O)C(=O)N[C@@H](CC(C)C)C(=O)N[C@H](C(N)=O)CSC3) [Ac-(06-34-18) Cys2ToPen2] | 2160 nM

Biological target: T1, human plasma Kallikrein
Test: enzyme inhibition assay
Remark: another data set of the same source

Row | Binder | Ki
12 | Ac-CS[dW]PARCLHQDLC-NH2 (linker 1-7-13 via TBMB; SMILES CC(=O)N[C@H]1CSCc2cc3cc(c2)CSC[C@H](NC(=O)[C@H](CCCNC(=N)N)NC(=O)[C@H](C)NC(=O)[C@@H]2CCCN2C(=O)[C@@H](Cc2c[nH]c4ccccc24)NC(=O)[C@H](CO)NC1=O)C(=O)N[C@@H](CC(C)C)C(=O)N[C@@H](Cc1c[nH]cn1)C(=O)N[C@@H](CCC(N)=O)C(=O)N[C@@H](CC(=O)O)C(=O)N[C@@H](CC(C)C)C(=O)N[C@H](C(N)=O)CSC3) [Ac-(06-34-18) D-Trp2] | 7560 nM
13 | Ac-CSW[dP]ARCLHQDLC-NH2 (linker 1-7-13 via TBMB; SMILES CC(=O)N[C@H]1CSCc2cc3cc(c2)CSC[C@H](NC(=O)[C@H](CCCNC(=N)N)NC(=O)[C@H](C)NC(=O)[C@H]2CCCN2C(=O)[C@H](Cc2c[nH]c4ccccc24)NC(=O)[C@H](CO)NC1=O)C(=O)N[C@@H](CC(C)C)C(=O)N[C@@H](Cc1c[nH]cn1)C(=O)N[C@@H](CCC(N)=O)C(=O)N[C@@H](CC(=O)O)C(=O)N[C@@H](CC(C)C)C(=O)N[C@H](C(N)=O)CSC3) [Ac-(06-34-18) D-Pro3] | 680 nM
14 | Ac-CSWP[dA]RCLHQDLC-NH2 (linker 1-7-13 via TBMB; SMILES CC(=O)N[C@H]1CSCc2cc3cc(c2)CSC[C@H](NC(=O)[C@H](CCCNC(=N)N)NC(=O)[C@@H](C)NC(=O)[C@@H]2CCCN2C(=O)[C@H](Cc2c[nH]c4ccccc24)NC(=O)[C@H](CO)NC1=O)C(=O)N[C@@H](CC(C)C)C(=O)N[C@@H](Cc1c[nH]cn1)C(=O)N[C@@H](CCC(N)=O)C(=O)N[C@@H](CC(=O)O)C(=O)N[C@@H](CC(C)C)C(=O)N[C@H](C(N)=O)CSC3) [Ac-(06-34-18) D-Ala4] | 1200 nM
15 | Ac-CSWPA[dR]CLHQDLC-NH2 (linker 1-7-13 via TBMB; SMILES CC(=O)N[C@H]1CSCc2cc3cc(c2)CSC[C@H](NC(=O)[C@@H](CCCNC(=N)N)NC(=O)[C@H](C)NC(=O)[C@@H]2CCCN2C(=O)[C@H](Cc2c[nH]c4ccccc24)NC(=O)[C@H](CO)NC1=O)C(=O)N[C@@H](CC(C)C)C(=O)N[C@@H](Cc1c[nH]cn1)C(=O)N[C@@H](CCC(N)=O)C(=O)N[C@@H](CC(=O)O)C(=O)N[C@@H](CC(C)C)C(=O)N[C@H](C(N)=O)CSC3) [Ac-(06-34-18) D-Arg5] | 52 nM
16 | Ac-CSWPAR[dC]LHQDLC-NH2 (linker 1-7-13 via TBMB; SMILES CC(=O)N[C@H]1CSCc2cc3cc(c2)CSC[C@@H](NC(=O)[C@H](CCCNC(=N)N)NC(=O)[C@H](C)NC(=O)[C@@H]2CCCN2C(=O)[C@H](Cc2c[nH]c4ccccc24)NC(=O)[C@H](CO)NC1=O)C(=O)N[C@@H](CC(C)C)C(=O)N[C@@H](Cc1c[nH]cn1)C(=O)N[C@@H](CCC(N)=O)C(=O)N[C@@H](CC(=O)O)C(=O)N[C@@H](CC(C)C)C(=O)N[C@H](C(N)=O)CSC3) [Ac-(06-34-18) D-Cys2] | 234 nM

Biological target: T1, human plasma Kallikrein
Test: enzyme inhibition assay
Remark: another data set of the same source

Row | Binder | Ki
17 | Ac-CSWPA[Cit]CLHQDLC-NH2 (linker 1-7-13 via TBMB; SMILES CC(=O)N[C@H]1CSCc2cc3cc(c2)CSC[C@H](NC(=O)[C@H](CCCNC(N)=O)NC(=O)[C@H](C)NC(=O)[C@@H]2CCCN2C(=O)[C@H](Cc2c[nH]c4ccccc24)NC(=O)[C@H](CO)NC1=O)C(=O)N[C@@H](CC(C)C)C(=O)N[C@@H](Cc1c[nH]cn1)C(=O)N[C@@H](CCC(N)=O)C(=O)N[C@@H](CC(=O)O)C(=O)N[C@@H](CC(C)C)C(=O)N[C@H](C(N)=O)CSC3) [Ac-(06-34-18) Cit5] | 7860 nM
18 | Ac-CSWPACLHQDLC-NH2 (linker 1-6-12 via TBMB; SMILES CC(=O)N[C@H]1CSCc2cc3cc(c2)CSC[C@H](NC(=O)[C@H](C)NC(=O)[C@@H]2CCCN2C(=O)[C@H](Cc2c[nH]c4ccccc24)NC(=O)[C@H](CO)NC1=O)C(=O)N[C@@H](CC(C)C)C(=O)N[C@@H](Cc1c[nH]cn1)C(=O)N[C@@H](CCC(N)=O)C(=O)N[C@@H](CC(=O)O)C(=O)N[C@@H](CC(C)C)C(=O)N[C@H](C(N)=O)CSC3, Residue ranges derived from the stated deletion of Arg5) [Ac-(06-34-18) Δ Arg5] | > 100000 nM

Biological target: T1, human plasma Kallikrein
Test: enzyme inhibition assay
Remark: another data set of the same source

Row | Binder | Ki
19 | Ac-CSF[Aze]Y[hArg]CLHQDLC-NH2 (linker 1-7-13 via TBMB) [Ac-(06-34-18) Phe2 Aze3 Tyr4 HomoArg5] | 0.12 nM
20 | Ac-CSF[Aze]Y[Phe(4-guanidino)]CLHQDLC-NH2 (linker 1-7-13 via TBMB) [Ac-(06-34-18) Phe2 Aze3Tyr4 4GuanPhe5] | 0.36 nM
21 | Ac-CSF[Aze]Y[NMeR]CLHQDLC-NH2 (linker 1-7-13 via TBMB; SMILES CC(=O)N[C@H]1CSCc2cc3cc(c2)CSC[C@H](NC(=O)[C@H](CCCNC(=N)N)N(C)C(=O)[C@H](Cc2ccc(O)cc2)NC(=O)[C@@H]2CCN2C(=O)[C@H](Cc2ccccc2)NC(=O)[C@H](CO)NC1=O)C(=O)N[C@@H](CC(C)C)C(=O)N[C@@H](Cc1c[nH]cn1)C(=O)N[C@@H](CCC(N)=O)C(=O)N[C@@H](CC(=O)O)C(=O)N[C@@H](CC(C)C)C(=O)N[C@H](C(N)=O)CSC3) [Ac-(06-34-18) Phe2 Aze3Tyr4 NMeArg5] | 0.97 nM

Biological target: T1, human plasma Kallikrein
Test: enzyme inhibition assay
Remark: another data set of the same source

Row | Binder | fold loss in potency against Ac-06-34-18(TMB)-NH2 | fold reduction of affinity against Ac-06-34-18(TMB)-NH2
22 | Ac-CS[dW]PARCLHQDLC-NH2 (linker 1-7-13 via TBMB; SMILES CC(=O)N[C@H]1CSCc2cc3cc(c2)CSC[C@H](NC(=O)[C@H](CCCNC(=N)N)NC(=O)[C@H](C)NC(=O)[C@@H]2CCCN2C(=O)[C@@H](Cc2c[nH]c4ccccc24)NC(=O)[C@H](CO)NC1=O)C(=O)N[C@@H](CC(C)C)C(=O)N[C@@H](Cc1c[nH]cn1)C(=O)N[C@@H](CCC(N)=O)C(=O)N[C@@H](CC(=O)O)C(=O)N[C@@H](CC(C)C)C(=O)N[C@H](C(N)=O)CSC3) [Ac-(06-34-18) D-Trp2] | 45000 fold | 
23 | Ac-CSWP[dA]RCLHQDLC-NH2 (linker 1-7-13 via TBMB; SMILES CC(=O)N[C@H]1CSCc2cc3cc(c2)CSC[C@H](NC(=O)[C@H](CCCNC(=N)N)NC(=O)[C@@H](C)NC(=O)[C@@H]2CCCN2C(=O)[C@H](Cc2c[nH]c4ccccc24)NC(=O)[C@H](CO)NC1=O)C(=O)N[C@@H](CC(C)C)C(=O)N[C@@H](Cc1c[nH]cn1)C(=O)N[C@@H](CCC(N)=O)C(=O)N[C@@H](CC(=O)O)C(=O)N[C@@H](CC(C)C)C(=O)N[C@H](C(N)=O)CSC3) [Ac-(06-34-18) D-Ala4] |  | 7000 fold
24 | Ac-CSWPA[dR]CLHQDLC-NH2 (linker 1-7-13 via TBMB; SMILES CC(=O)N[C@H]1CSCc2cc3cc(c2)CSC[C@H](NC(=O)[C@@H](CCCNC(=N)N)NC(=O)[C@H](C)NC(=O)[C@@H]2CCCN2C(=O)[C@H](Cc2c[nH]c4ccccc24)NC(=O)[C@H](CO)NC1=O)C(=O)N[C@@H](CC(C)C)C(=O)N[C@@H](Cc1c[nH]cn1)C(=O)N[C@@H](CCC(N)=O)C(=O)N[C@@H](CC(=O)O)C(=O)N[C@@H](CC(C)C)C(=O)N[C@H](C(N)=O)CSC3) [Ac-(06-34-18) D-Arg5] | 300 fold | 

Source: patent US10800813 (Bicycle, dated 2020)
